How the values were obtained:
[1] = biological target: T1, ZZ domain of HERC2 (HERC2ZZ, aa 2702–2755 with additional tryptophan at the C-terminus) (human, UniProt O95714 2702-2755); test: NMR titration; 1H,15N HSQC of 0.1–0.2 mM 15N-labelled HERC2 protein titrated with unlabeled protein or peptide; 298 K; 20 mM Tris (pH 6.8) or 20 mM PBS (pH 6.5), 150 mM NaCl, 2 mM DTT, 10% D2O; conditions: both partners purified
T1 construct: E3 ubiquitin ligase HERC2, human, ZZ domain, aa 2702–2755 of the 4834 residue protein; additional tryptophan residue introduced at the C-terminus of HERC2ZZ to quantify the protein and for the tryptophan fluorescence assay; 15N-labelled in the NMR titrations where it is the observed protein; also called HERCZZ; WT HERC2ZZ; source: E. coli BL21 (DE3) RIL, purified (Ni-NTA, ULP1 cleavage; unlabeled …)
T1 chain: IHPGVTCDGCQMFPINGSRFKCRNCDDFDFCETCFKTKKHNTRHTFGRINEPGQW

[2] = biological target: T2, HERC2_(ZZ-DOC) (aa 2702–2914), construct encompassing both ZZ and DOC domains (human, UniProt O95714 2702-2914); test: as above; conditions: both partners purified
T2 construct: E3 ubiquitin ligase HERC2, human, ZZ and DOC domains, aa 2702–2914; 15N-labelled for NMR; also called linked HERC2_(ZZ-DOC); source: E. coli BL21 (DE3) RIL, purified (Ni-NTA, ULP1 cleavage); not shown: His8x-SUMO, N-terminal, cleaved

binding result [1]: binds
binding result [2]: binds
B1: histone H3_(1–12) peptide (aa 1–12 of H3) (peptide, UniProt P68431 2-13, looked up)
peptide: ARTKQTARKSTG
notes: histone H3, aa 1–12; also called H3 peptide
